Assay results as given in patent publication US20220056146A1 (TASRIF PHARMACEUTICAL, published 2022).

Tests used:
[1] = target: T1, human CD155 (poliovirus receptor, PVR) on cells (U87/U87MG, HAP1) (human, UniProt P15151 21-417); test: cell binding on HAP-1 cells
T1 construct: whole, on cells
T1 sequence (looked up): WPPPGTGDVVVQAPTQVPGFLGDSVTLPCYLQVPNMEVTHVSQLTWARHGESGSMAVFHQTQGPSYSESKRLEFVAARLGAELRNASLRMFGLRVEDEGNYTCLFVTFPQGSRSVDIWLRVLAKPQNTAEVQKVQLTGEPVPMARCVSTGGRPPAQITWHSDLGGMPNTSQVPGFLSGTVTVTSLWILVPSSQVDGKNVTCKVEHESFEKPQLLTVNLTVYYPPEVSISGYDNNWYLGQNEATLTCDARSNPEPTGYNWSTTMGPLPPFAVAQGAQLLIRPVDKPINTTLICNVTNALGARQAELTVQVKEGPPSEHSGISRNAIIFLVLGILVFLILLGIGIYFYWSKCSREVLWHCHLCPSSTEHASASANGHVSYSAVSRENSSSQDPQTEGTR

[2] = target: T1, human CD155 (poliovirus receptor, PVR) …; test: cell binding on U-87 cells
[3] = target: T2, African green monkey PVR (CD 155) on Vero cells (African green monkey); test: cell binding on Vero cells
T2 construct: whole, on cells
T2 sequence (P32506 21-417): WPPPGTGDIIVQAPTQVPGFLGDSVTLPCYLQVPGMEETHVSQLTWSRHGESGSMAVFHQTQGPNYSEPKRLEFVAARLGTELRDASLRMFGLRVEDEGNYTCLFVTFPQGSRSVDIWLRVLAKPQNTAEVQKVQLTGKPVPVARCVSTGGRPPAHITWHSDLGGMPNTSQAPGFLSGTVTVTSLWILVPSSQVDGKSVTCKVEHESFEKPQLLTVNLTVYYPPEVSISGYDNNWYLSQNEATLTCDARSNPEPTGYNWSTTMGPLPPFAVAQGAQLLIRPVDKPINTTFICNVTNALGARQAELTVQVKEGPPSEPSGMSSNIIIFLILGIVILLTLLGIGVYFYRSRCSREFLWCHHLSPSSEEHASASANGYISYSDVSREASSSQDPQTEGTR

[4] = target: T1, human CD155 (poliovirus receptor, PVR) …; test: in vivo fluorescence imaging of mice with U87MG tumors, 72 hours after injection
Description: Ab825-VT680 conjugate binds and accumulates in U87MG tumors In Vivo. The control mice were either untreated or treated with VT 680 dye alone.

[5] = target: T3, poliovirus receptor (PVR, CD 155), form not stated (UniProt P15151 21-343, limits assumed); test: surface plasmon resonance (Biacore)
T3 sequence (looked up): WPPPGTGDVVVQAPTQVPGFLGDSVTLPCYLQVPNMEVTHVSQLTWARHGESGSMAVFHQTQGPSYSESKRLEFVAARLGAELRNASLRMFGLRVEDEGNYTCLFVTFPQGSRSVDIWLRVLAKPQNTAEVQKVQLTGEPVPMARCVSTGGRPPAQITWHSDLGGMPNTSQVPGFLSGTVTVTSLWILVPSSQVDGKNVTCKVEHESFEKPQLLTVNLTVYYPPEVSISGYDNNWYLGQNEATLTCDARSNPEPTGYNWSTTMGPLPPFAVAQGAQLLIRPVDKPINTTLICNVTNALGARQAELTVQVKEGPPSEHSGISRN

B1: Ab825 (VH0/VK0), human IgG1 chimeric antibody (antibody, V domains shown)
VH: EVQLQQSGPELVKPGASVKISCKTSGYTFTEYTMHWVKQSHGKSLEWIGGIHPNNGDTSYNQRFKGKATLTVDKSSSTAYMELRSLTSEDSAVYYCARWTGDFDYWGQGTTLTVST
VL: DIVMTQSPKFMSTSVGDRVSVTCKASQNVGTNVAWYQQKPGQSPKALIYSASYRYSGVPDRFTGSGSGTDFTLTISNVQSEDLAEYFCQQYNSYPYTFGGGTKLEIK
notes: Murine variable regions in a human IgG1 chimeric antibody, derived from D171
[1]
  EC50: 0.0487 µg/mL
[2]
  EC50: 0.0869 µg/mL
[3]
  EC50: 0.086 µg/mL

B2: Ab825-VT680 conjugate (antibody, V domains shown)
VH: EVQLQQSGPELVKPGASVKISCKTSGYTFTEYTMHWVKQSHGKSLEWIGGIHPNNGDTSYNQRFKGKATLTVDKSSSTAYMELRSLTSEDSAVYYCARWTGDFDYWGQGTTLTVST
VL: DIVMTQSPKFMSTSVGDRVSVTCKASQNVGTNVAWYQQKPGQSPKALIYSASYRYSGVPDRFTGSGSGTDFTLTISNVQSEDLAEYFCQQYNSYPYTFGGGTKLEIK
notes: Ab825 conjugated to the fluorophore VT680; Neither the chain nor the site of conjugation is stated
[4]
  binding result: binds

B3: VH4 N54S D56E / VK3 N92E (antibody, V domains shown)
VH: EVQLVQSGSELKKPGASVKVSCKTSGYTFTEYTMHWVRQPHGKGLEWIGGIHPNSGETSYNQRFKGRVTITVDKSTSTAYMELSSLRSEDTAVYYCARWTGDFDYWGQGTLVTVSS
VL: DIQMTQSPSAMSASVGDRVTITCKASQNVGTNVAWYQQKPGQPPKALIYSASYRYSGVPDRFSGSGSGTDFTLTISSLQAEDLAEYFCQQYESYPYTFGQGTKLEIK
notes: Humanized variant of Ab825; also called antibody (vi)
[1]
  EC50: 0.0984 µg/mL
[2]
  EC50: 0.585 µg/mL
[3]
  EC50: 0.236 µg/mL

B4: monoclonal antibody defined by SEQ ID 23 (LCVR) and SEQ ID 25 (HCVR) with a IgG4 (S241P) (antibody, V domains shown)
VH: EVQLVQSGSELKKPGASVKVSCKTSGYTFTEYTMHWVRQPHGKGLEWIGGIHPNSGGTSYNQRFKGRVTITVDKSTSTAYMELSSLRSEDTAVYYCARWTGDFDYWGQGTLVTVSS
VL: DIQMTQSPSAMSASVGDRVTITCKASQNVGTNVAWYQQKPGQPPKALIYSASYRYSGVPDRFSGSGSGTDFTLTISSLQAEDLAEYFCQQYQSYPYTFGQGTKLEIK
notes: also called VH4 N54S D56G / Vk3 N92Q IgG4 (S241P)
[5]
  Kd: 0.3 nM

B5: VH3 N54S D56G / VK3 N92Q (antibody, V domains shown)
VH: EVQLVQSGSELKKPGASVKISCKTSGYTFTEYTMHWVRQPHGKGLEWIGGIHPNSGGTSYNQRFKGRVTLTVDKSTSTAYMELSSLRSEDTAVYYCARWTGDFDYWGQGTLVTVSS
VL: DIQMTQSPSAMSASVGDRVTITCKASQNVGTNVAWYQQKPGQPPKALIYSASYRYSGVPDRFSGSGSGTDFTLTISSLQAEDLAEYFCQQYQSYPYTFGQGTKLEIK
notes: Humanized variant of Ab825; also called antibody (iv); Sample 3
[1]
  EC50: 0.0381 µg/mL
[2]
  EC50: 0.0778 µg/mL
[3]
  EC50: 0.0561 µg/mL

B6: VH4 N54S D56G / VK3 N92E (antibody, V domains shown)
VH: EVQLVQSGSELKKPGASVKVSCKTSGYTFTEYTMHWVRQPHGKGLEWIGGIHPNSGGTSYNQRFKGRVTITVDKSTSTAYMELSSLRSEDTAVYYCARWTGDFDYWGQGTLVTVSS
VL: DIQMTQSPSAMSASVGDRVTITCKASQNVGTNVAWYQQKPGQPPKALIYSASYRYSGVPDRFSGSGSGTDFTLTISSLQAEDLAEYFCQQYESYPYTFGQGTKLEIK
notes: Humanized variant of Ab825; also called antibody (vii)
[1]
  EC50: 0.0563 µg/mL
[2]
  EC50: 0.191 µg/mL
[3]
  EC50: 0.108 µg/mL

B7: VH4 N54Q D56E / VK3 N92Q (antibody, V domains shown)
VH: EVQLVQSGSELKKPGASVKVSCKTSGYTFTEYTMHWVRQPHGKGLEWIGGIHPNQGETSYNQRFKGRVTITVDKSTSTAYMELSSLRSEDTAVYYCARWTGDFDYWGQGTLVTVSS
VL: DIQMTQSPSAMSASVGDRVTITCKASQNVGTNVAWYQQKPGQPPKALIYSASYRYSGVPDRFSGSGSGTDFTLTISSLQAEDLAEYFCQQYQSYPYTFGQGTKLEIK
notes: Humanized variant of Ab825; also called antibody (viii)
[1]
  EC50: 0.108 µg/mL
[2]
  EC50: 0.523 µg/mL
[3]
  EC50: 0.48 µg/mL

B8: VH3 N54Q D56E / VK2 N92E (antibody, V domains shown)
VH: EVQLVQSGSELKKPGASVKISCKTSGYTFTEYTMHWVRQPHGKGLEWIGGIHPNQGETSYNQRFKGRVTLTVDKSTSTAYMELSSLRSEDTAVYYCARWTGDFDYWGQGTLVTVSS
VL: DIVMTQSPSAMSASVGDRVTITCKASQNVGTNVAWYQQKPGQPPKALIYSASYRYSGVPDRFTGSGSGTDFTLTISSLQAEDLAEYFCQQYESYPYTFGQGTKLEIK
notes: Humanized variant of Ab825; also called antibody (i)
[1]
  EC50: 0.168 µg/mL
[2]
  EC50: 0.272 µg/mL
[3]
  EC50: 0.226 µg/mL

B9: VH3 N54S D56G / VK2 N92Q (antibody, V domains shown)
VH: EVQLVQSGSELKKPGASVKISCKTSGYTFTEYTMHWVRQPHGKGLEWIGGIHPNSGGTSYNQRFKGRVTLTVDKSTSTAYMELSSLRSEDTAVYYCARWTGDFDYWGQGTLVTVSS
VL: DIVMTQSPSAMSASVGDRVTITCKASQNVGTNVAWYQQKPGQPPKALIYSASYRYSGVPDRFTGSGSGTDFTLTISSLQAEDLAEYFCQQYQSYPYTFGQGTKLEIK
notes: Humanized variant of Ab825; also called antibody (ii); Sample 2
[1]
  EC50: 0.0383 µg/mL
[2]
  EC50: 0.069 µg/mL
[3]
  EC50: 0.0615 µg/mL

B10: VH4 N54Q D56E / VK3 N92E (antibody, V domains shown)
VH: EVQLVQSGSELKKPGASVKVSCKTSGYTFTEYTMHWVRQPHGKGLEWIGGIHPNQGETSYNQRFKGRVTITVDKSTSTAYMELSSLRSEDTAVYYCARWTGDFDYWGQGTLVTVSS
VL: DIQMTQSPSAMSASVGDRVTITCKASQNVGTNVAWYQQKPGQPPKALIYSASYRYSGVPDRFSGSGSGTDFTLTISSLQAEDLAEYFCQQYESYPYTFGQGTKLEIK
notes: Humanized variant of Ab825; also called antibody (v)
[1]
  EC50: 0.097 µg/mL
[2]
  EC50: 0.551 µg/mL
[3]
  EC50: 0.629 µg/mL

B11: VH4 N54S D56G / VK3 N92Q (antibody, V domains shown)
VH: EVQLVQSGSELKKPGASVKVSCKTSGYTFTEYTMHWVRQPHGKGLEWIGGIHPNSGGTSYNQRFKGRVTITVDKSTSTAYMELSSLRSEDTAVYYCARWTGDFDYWGQGTLVTVSS
VL: DIQMTQSPSAMSASVGDRVTITCKASQNVGTNVAWYQQKPGQPPKALIYSASYRYSGVPDRFSGSGSGTDFTLTISSLQAEDLAEYFCQQYQSYPYTFGQGTKLEIK
notes: Humanized variant of Ab825; also called antibody (ix); Sample 4
[1]
  EC50: 0.0446 µg/mL
[2]
  EC50: 0.0932 µg/mL
[3]
  EC50: 0.0869 µg/mL

B12: VH3 N54Q D56E / VK3 N92E (antibody, V domains shown)
VH: EVQLVQSGSELKKPGASVKISCKTSGYTFTEYTMHWVRQPHGKGLEWIGGIHPNQGETSYNQRFKGRVTLTVDKSTSTAYMELSSLRSEDTAVYYCARWTGDFDYWGQGTLVTVSS
VL: DIQMTQSPSAMSASVGDRVTITCKASQNVGTNVAWYQQKPGQPPKALIYSASYRYSGVPDRFSGSGSGTDFTLTISSLQAEDLAEYFCQQYESYPYTFGQGTKLEIK
notes: Humanized variant of Ab825; also called antibody (iii)
[1]
  EC50: 0.115 µg/mL
[2]
  EC50: 0.284 µg/mL
[3]
  EC50: 0.273 µg/mL
